Substitutions are numbered along the chain they refer to.
Tested on: rabbit iRhom1
Assay: FACS binding on MEF-DKO-Rabbit-iR1-FL-WT-T7 cells
Conditions: antibody at 3 μg/ml
Description: Next, iRhom1/2−/− DKO MEFs stably expressing a tagged form of rhesus monkey, cynomolgus monkey, dog or rabbit iRhom2 were generated in order to determine cross-reactivity of the antibodies of the invention with the respective orthologue of iRhom2. iRhom1/2−/− DKO MEFs stably expressing a tagged form of rhesus monkey, cynomolgus monkey, dog or rabbit iRhom1 were generated to confirm specificity for iRhom2 versus iRhom1 of these species.
In brief, on day 1, Phoenix-ECO cells (American Type Culture Collection, USA) were seeded on 6-well tissue culture plates (Greiner, Germany) in standard growth medium at 8×10^5 cells per well and kept overnight at 37° C., 5% CO2. On day 2, the medium was replaced by fresh medium supplemented with chloroquine (Sigma-Aldrich, USA) at a final concentration of 25 μM. Applying the calcium phosphate method, cells were transfected with 2 μg/ml of pMSCV (Clontech, USA) empty vector, pMSCV-rhesus-iR2-FL-WT-T7 encoding rhesus monkey iRhom2 full length wild type C-terminally tagged with 3 consecutive copies of the T7 epitope, pMSCV-cyno-iR2-FL-WT-T7 encoding cynomolgus monkey iRhom2 full length wild type C-terminally tagged with 3 consecutive copies of the T7 epitope, pMSCV-dog-iR2-FL-WT-T7 encoding dog iRhom2 full length wild type C-terminally tagged with 3 consecutive copies of the T7 epitope or pMSCV-rabbit-iR2-FL-WT-T7 encoding rabbit iRhom2 full length wild type C-terminally tagged with 3 consecutive copies of the T7 epitope, respectively, and were kept at 37° C., 5% CO2. After 7 hours, the transfections were stopped by replacing cell supernatants with standard growth medium lacking chloroquine, and cells were incubated at 37° C., 5% CO2 to allow virus production overnight. In parallel, immortalized iRhom1/2−/− DKO MEFs as target cells for retroviral infection were seeded on 6-well tissue culture plates (Greiner, Germany) in standard growth medium at 1×10^5 cells per well and were also kept overnight at 37° C., 5% CO2. On day 3, the supernatants of Phoenix-ECO cells releasing pMSCV, pMSCV-rhesus-iR2-FL-WT-T7, pMSCV-cyno-iR2-FL-WT-T7, pMSCV-dog-iR2-FL-WT-T7 or pMSCV-rabbit-iR2-FL-WT-T7 ecotrophic virus, respectively were collected, filtered with 0.45 μm CA filters, and supplemented with 4 μg/ml of polybrene (Sigma-Aldrich, USA). Upon removal of medium from the immortalized iRhom1/2−/− DKO MEFs, the virus containing supernatants were added to the target cells for 4 hours at 37° C., 5% CO2 for first infection. Simultaneously, Phoenix-ECO cells were re-incubated with fresh medium, which, after another 4 hours, was filtered and used for the second infection of the respective target cell populations, again in the presence of 4 μg/ml of polybrene. Likewise, a third, but overnight infection cycle was performed. On day 4, virus containing cell supernatants were replaced by fresh standard growth medium. From day 5 onwards, cells were grown in the presence of 2 mg/ml of geneticin (G418, Thermo Fisher Scientific, USA) for the selection of immortalized MEF-DKO-EV control cells stably infected with pMSCV empty vector, pMSCV-rhesus-iR2-FL-WT-T7 cells stably expressing rhesus monkey iRhom2 full length wild type C-terminally tagged with 3 consecutive copies of the T7 epitope, pMSCV-cyno-iR2-FL-WT-T7 cells stably expressing cynomolgus monkey iRhom2 full length wild type C-terminally tagged with 3 consecutive copies of the T7 epitope, pMSCV-dog-iR2-FL-WT-T7 cells stably expressing dog iRhom2 full length wild type C-terminally tagged with 3 consecutive copies of the T7 epitope or pMSCV-rabbit-iR2-FL-WT-T7 cells stably expressing rabbit iRhom2 full length wild type C-terminally tagged with 3 consecutive copies of the T7 epitope, respectively. Upon propagation, cells were stocked for future usage. In parallel, iRhom1/2−/− DKO MEFs stably expressing a tagged form of rhesus monkey, cynomolgus monkey, dog or rabbit iRhom1 were generated in an analogous manner. […]

B1: 23-B-04: humanized antibody binding human iRhom2; HCVD SEQ ID NO 25, LCVD SEQ ID NO 29 (antibody, V domains shown)
VH: QVTLRESGPALVKPTQTLTLTCTFSGFSLSTFGMGVGWIRQPPGKALEWLAHIWWDDEKYYNSALKSRLTISKDTSKNQVVLTITNMDPVDTATYYCARISNYGSNYWYFNVWGQGTLVTVSS
VL: AIQLTQSPSSLSASVGDRVTITCRASSSVSYMYWYQQKPGKAPKVLIYDTSNLASGVPSRFSGSGSGTDYTLTISSLQPEDFATYYCQQWNAYPLTFGQGTKLEIK
modifications: antibody sequences
binding to rabbit iRhom1 on MEF-DKO-Rabbit-iR1-FL-WT-T7 cells: do not recognize rabbit iRhom1

B2: 42-B-04: humanized antibody binding human iRhom2; HCVD SEQ ID NO 41, LCVD SEQ ID NO 45 (antibody, V domains shown)
VH: B1 VH with M34R, S101Q, N111D
VL: B1 VL with S28R, V29I, Y33F
modifications: antibody sequences
binding to rabbit iRhom1 on MEF-DKO-Rabbit-iR1-FL-WT-T7 cells: do not recognize rabbit iRhom1

B3: 42-B-02: humanized antibody binding human iRhom2; HCVD SEQ ID NO 33, LCVD SEQ ID NO 37 (antibody, V domains shown)
VH: B1 VH with M34R, S101Q, N111D
VL: B1 VL with S28R, V29I, Y33F, A92S
modifications: antibody sequences
binding to rabbit iRhom1 on MEF-DKO-Rabbit-iR1-FL-WT-T7 cells: do not recognize rabbit iRhom1

B4: 16-B-03: humanized antibody binding human iRhom2; HCVD SEQ ID NO 1, LCVD SEQ ID NO 5 (antibody, V domains shown)
VH: QVTLRESGPALVKPTQTLTLTCTFSGFSLSTFALGVGWIRQPPGKALEWLAHIWWDDDKYYNPALKSRLTISKDTSKNQVVLTITNMDPVDTATYYCARITTYYYGMDYWGQGTLVTVSS
VL: EIVMTQSPDFQSVTPKEKVTITCRASQSIGNHLHWYQQKPDASPKLLIKYASQSISGVPSRFSGSGSGTDFTLTINSLEAEDAATYFCQQSYQWPLTFGQGTKLEIK
modifications: antibody sequences
binding to rabbit iRhom1 on MEF-DKO-Rabbit-iR1-FL-WT-T7 cells: no significant binding

B5: 16-B-05: humanized antibody binding human iRhom2; HCVD SEQ ID NO 9, LCVD SEQ ID NO 13 (antibody, V domains shown)
VH: B4 VH with D57E
VL: B4 VL with Q93N
modifications: antibody sequences
binding to rabbit iRhom1 on MEF-DKO-Rabbit-iR1-FL-WT-T7 cells: do not recognize rabbit iRhom1

B6: 16-B-07: humanized antibody binding human iRhom2; HCVD SEQ ID NO 17, LCVD SEQ ID NO 21 (antibody, V domains shown)
VH: B4 VH with D57E
VL: B4 VL
modifications: antibody sequences
binding to rabbit iRhom1 on MEF-DKO-Rabbit-iR1-FL-WT-T7 cells: do not recognize rabbit iRhom1

Reference: patent US12404345B2, “Humanized antibodies against iRHOM2” (SCIRHOM GMBH, priority 2021, dated 2025)
